Measurements from patent US20040185113A1, “Fine inorganic particles having drug included therein, method for preparation thereof and pharmaceutical preparation comprising fine inorganic particles having drug included therein” (priority 2001, published 2004).

Test: G-CSF release test and stability of G-CSF in buffer solution at room temperature
Format: physicochemical
Settings: 1% BSA/Tris-HCl (pH 7.2), ELISA, FIG. 4
Protocol: Six hundred fifty μl of 5M CaCl2 was admixed with 250 μl of 500 μg/ml G-CSF with stirring. Then 2.5 ml of 1M Na2CO3 was added and stirred for 10 minutes to prepare CaCO3 particles. Five ml of H2O was added to the particles, and the mixture was centrifuged at 2,000 rpm for 5 min to remove the supernatant. To the resultant precipitate, 12.5 ml of H2O was added, and 1 ml of the mixture was taken into a 2.0 ml test tube. The test tube and content was centrifuged at 2,000 rpm for 5 min to remove the supernatant which was used for ELISA. To the resultant precipitate, 1 ml of 1% BSA/Tris—HCl (pH 7.2) was added and shaken at room temperature. The mixture was centrifuged every 24 hours at 2,000 rpm for 5 min to collect the supernatant and to the resultant precipitate 1 ml of 1% BSA/Tris—HCl (pH 7.2) was added again, and this operation was continued for 7 days. The last precipitate was dissolved with hydrochloric acid and used for ELISA. G-CSF was assayed using ELISA Kit manufactured by IBL Co. and the total (cumulative) amount of G-CSF released from the G-CSF-encapsulating CaCO3 preparation was shown. […] A part of the mixture was collected every 24 hours, and the amount of G-CSF was determined by ELISA to examine the stability of G-CSF at room temperature.

B1: free G-CSF: granulocyte colony-stimulating factor (Chugai Pharmaceutical) in 1% BSA/Tris-HCl solution, control (protein, UniProt P09919 31-207, looked up)
Granulocyte …: TPLGPASSLPQSFLLKCLEQVRKIQGDGAALQEKLVSECATYKLCHPEELVLLGHSLGIPWAPLSSCPSQALQLAGCLSQLHSGLFLYQGLLQALEGISPELGPTLDTLQLDVADFATTIWQQMEELGMAPALQPTQGAMPAFASAFQRRAGGVLVASHLQSFLEVSYRVLRHLAQP
In the case of B1, the “stability of G-CSF” value is reported as “unstableness”.
